What all share (assay): fluorescence polarisation
The target of experiment [1] is T1, wild type Rb pocket domain (Rb^P) (human, UniProt P06400 380-788).
T1 sequence: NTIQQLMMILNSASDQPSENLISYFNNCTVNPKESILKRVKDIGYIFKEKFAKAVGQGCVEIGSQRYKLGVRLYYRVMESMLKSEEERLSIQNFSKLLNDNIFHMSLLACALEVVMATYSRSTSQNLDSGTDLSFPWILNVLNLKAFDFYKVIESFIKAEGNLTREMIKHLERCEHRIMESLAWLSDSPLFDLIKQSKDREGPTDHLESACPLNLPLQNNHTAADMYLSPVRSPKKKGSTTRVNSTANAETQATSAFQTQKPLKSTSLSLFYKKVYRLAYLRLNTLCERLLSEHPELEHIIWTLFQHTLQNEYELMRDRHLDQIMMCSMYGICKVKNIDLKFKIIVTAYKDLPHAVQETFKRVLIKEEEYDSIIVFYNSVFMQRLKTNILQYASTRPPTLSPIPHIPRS

In the next experiment the target is T2, Rb^P I703F (human, UniProt P06400 380-788, I703F).
T2 sequence: T1 sequence with I324F

In experiment [2] the target is T1, wild type Rb pocket domain (Rb^P). The source holds these as a separate data set.
In another experiment the target is T3, Rb^P M704V (human, UniProt P06400 380-788, M704V).
T3 sequence: T1 sequence with M325V

For the next experiment, the target named is T4, Rb^P E554K (human, UniProt P06400 380-788, E554K).
T4 sequence: T1 sequence with E175K

The target of another experiment is T5, Rb^P S751Y (human, UniProt P06400 380-788, S751Y).
T5 sequence: T1 sequence with S372Y

The source of these data is doi:10.1101/2024.09.22.614354 (bioRxiv, 2024).

One may read the Kd as the concentration at which binding is half-saturated. Higher therefore signals weaker binding.

Changes are numbered by the printed parent chain. Like-named read-outs stand apart in the source and are kept apart here.

B1: TMR-E7^LxCxE (LxCxE peptide of the E7 oncoprotein from HPV, TMR-labeled) (peptide)
peptide: DLYCYEQLN
modifications: not fully specified; TMR fluorescent label (TMR-E7^LxCxE)
Turning to B1, the Kd in experiment [1] turned out to be 5 nM; in the experiment with Rb^P I703F it was 16 nM; in experiment [2] it was 7 nM; with Rb^P M704V, 14 nM; with Rb^P E554K, 24 nM; with Rb^P S751Y it was 12 nM.
